# Measured values from publication PMC9389836.
# Experiments:
# Test in all cases: SEC
# [1] = target: SARS-CoV-2 Nsp15 A93S (SARS-CoV-2)
# [2] = target: SARS-CoV-2 Nsp15 H235Y (SARS-CoV-2)
# [3] = target: SARS-CoV-2 Nsp15 W333C (SARS-CoV-2)
# [4] = target: SARS-CoV-2 Nsp15 T113I (SARS-CoV-2)
# [5] = target: SARS-CoV-2 Nsp15 K13R (SARS-CoV-2)
# [6] = target: SARS-CoV-2 Nsp15 T115A (SARS-CoV-2)
# [7] = target: SARS-CoV-2 Nsp15 K13N (SARS-CoV-2)
# [8] = target: SARS-CoV-2 Nsp15 V128F (SARS-CoV-2)
# [9] = target: SARS-CoV-2 Nsp15 G18E (SARS-CoV-2)
# [10] = target: SARS-CoV-2 Nsp15 K290N (SARS-CoV-2)
# [11] = target: SARS-CoV-2 Nsp15 G18R (SARS-CoV-2)
# [12] = target: SARS-CoV-2 Nsp15 V321M (SARS-CoV-2)
# [13] = target: SARS-CoV-2 Nsp15 R207S (SARS-CoV-2)
# [14] = target: SARS-CoV-2 Nsp15 L163F (SARS-CoV-2)
# [15] = target: SARS-CoV-2 Nsp15 P206S (SARS-CoV-2)
# [16] = target: SARS-CoV-2 Nsp15 D133Y (SARS-CoV-2)
# [17] = target: SARS-CoV-2 Nsp15 T34I (SARS-CoV-2)
substance,measurement,setting,value
SARS-CoV-2 Nsp15 A93S (enzyme),hexamer/monomer ratio,[1],0.49
SARS-CoV-2 Nsp15 H235Y (enzyme),hexamer/monomer ratio,[2],1.61
SARS-CoV-2 Nsp15 W333C (enzyme),hexamer/monomer ratio,[3],0.77
SARS-CoV-2 Nsp15 T113I (enzyme),hexamer/monomer ratio,[4],1.79
SARS-CoV-2 Nsp15 K13R (enzyme),hexamer/monomer ratio,[5],1.18
SARS-CoV-2 Nsp15 T115A (enzyme),hexamer/monomer ratio,[6],0.55
SARS-CoV-2 Nsp15 K13N (enzyme),hexamer/monomer ratio,[7],0.63
SARS-CoV-2 Nsp15 V128F (enzyme),hexamer/monomer ratio,[8],0.5
SARS-CoV-2 Nsp15 G18E (enzyme),hexamer/monomer ratio,[9],0.56
SARS-CoV-2 Nsp15 K290N (enzyme),hexamer/monomer ratio,[10],2.12
SARS-CoV-2 Nsp15 G18R (enzyme),hexamer/monomer ratio,[11],0.88
SARS-CoV-2 Nsp15 V321M (enzyme),hexamer/monomer ratio,[12],0.65
SARS-CoV-2 Nsp15 R207S (enzyme),hexamer/monomer ratio,[13],0.14
SARS-CoV-2 Nsp15 L163F (enzyme),hexamer/monomer ratio,[14],0.23
SARS-CoV-2 Nsp15 P206S (enzyme),hexamer/monomer ratio,[15],2.49
SARS-CoV-2 Nsp15 D133Y (enzyme),hexamer/monomer ratio,[16],0.48
SARS-CoV-2 Nsp15 T34I (enzyme),hexamer/monomer ratio,[17],1.01
